# Source: publication PMC4441819
# Target: CH67 Fab, critical dipeptide VD changed to MD (human)
# Assay: BLI
substance,measurement,value
HA A/Solomon Islands/03/2006 globular head (from UniProt A7Y8I1) (domain or fragment),Kd,8.5 µM
same,koff,0.00478 s⁻¹
same,kon,56200 M⁻¹ s⁻¹
